Test results: patent publication US20250011391A1, “ULTRA LIGHT-SENSITIVE NEUROPSIN-BASED OPTOGENETIC TOOL FOR ACTIVATING G q-COUPLED SIGNALING AND/OR ACTIVATING CELLS” (GENANS BIOTECHNOLOGY CO., LTD, priority 2021, published 2025)

Key:
[1] = test system: Gq signaling in HEK 293T cells; assay: Light-induced Ca2+ signal (Calbryte 630 AM dye) in opsin-expressing HEK 293T cells; type: cell-based; details: for Light Sensitivity / Response amplitude: Ca2+ response amplitude: Table 8
Method: Whether heterologous expression of the Opn5 orthologs from chicken, turtles, humans and mice (which share 80-90% protein sequence identity) have the capacity to mediate blue light-induced Gq signaling activation within HEK 293T cells is tested (FIG. 1a and table 7). Blue light for stimulation and the red intracellular calcium indicator Calbryte™ 630 AM dye are used to monitor the relative Ca^2+ response (FIG. 1b).
b, Pseudocolor images of the Ca2+ signal before and after blue light stimulation (10 s; 100 μW/mm^2; 488 nm) in HEK 293T cells expressing Opn5 from three species (Gallus gallus, Homo sapiens, and Mus musculus). Scale bar, 10 μm.
Characterizing the light-activating properties of cOpn5 heterologously expressed in HEK 293T cells is performed. […] The effects of different light durations on cOpn5-expressing HEK 293T cells are tested. […] Therefore, the light sensitivity of cOpn5 is 3-4 orders of magnitude higher than the reported values of the light-sensitive Gq-coupled GPCRs and even 2-3 orders higher than those of the commonly used optogenetic tool Channelrhodopsin-2 (ChR2)(Lin, 2011; Zhang et al., 2006) (table 8).
The performance of cOpn5 to that of opto-a1AR, a chimera GPCR engineered by mixing rhodopsin with Gq-coupled adrenergic receptor is compared. […] The performance of cOpn5 to that of opn4, a natural opsin which was reported as a tool for Gq signaling activating is also compared. […] Therefore, compared with existing opsin-based tools (opto-a1AR and opn4), cOpn5 is much more light-sensitive (˜3 orders more sensitive), requires much shorter time exposure (10 ms vs. 60 s), and produces stronger responses. […]
Experiments description: the following table 9 is a partial list of cOpn5 orthologs from vertebrata tested in the present invention. Whole genes of all reported opsin5 orthologs from vertebrata (the vertebrates subphylum, including rotundia, cartilaginous fishes, bony fishes, Amphibia, reptila, ornitha and mammals) are synthetized, and expressed in HEK 293T cells. Calcium imaging with or without 470 nm blue light stimulation is performed to test the sensitivity of the opsin 5 orthologs in response to light. The time course of light-induced calcium signal reveal the activated degree of Gq signaling pathway and the sensitivity of these orthologs.

[2] = test system: astrocytes within the mouse S1 cortex; assay: In vivo two-photon imaging (920 nm) of ATP release (GRABATP sensor) following astrocyte activation
Method: The performance of cOpn5-mediated optogenetics in vivo is tested. Astrocytes represent an important population of non-excitable cells in the central nervous system, over which optogenetic tools have achieved only limited success to date^42. ATP is known as a messenger for inter-astrocyte communication; however, the real-time impacts of intracellular Ca^2+ on ATP release have not been visualized. Ultrasensitive GPCR Activation-Based ATP sensor GRABATP is used to monitor changes in extracellular ATP levels. Specifically, cOpn5 and the GRABATP sensor are expressed in the mouse S1 sensory cortex following the infusion of AAV vectors containing the GfaABC1D promoter (FIG. 6a), which is commonly used to drive gene expression in astrocytes.
Two-photon imaging of GRABATP signals from head-fixed awake, behaving mice is performed (FIG. 6a). It is initially expected that, in addition to the 920 nm light from pulsed laser for two-photon imaging, blue light pulses would be required to stimulate ATP signals. Strikingly, the 920 nm light itself, delivers for imaging, triggered massive ATP flashes in the cOpn5- and GRABATP-expressing mice, but not in mice that expressed the ATP sensor but lacked cOpn5 expression. Individual ATP flashes typically range in diameters of 20-100 μm and lasted for ˜1 min. The flash frequency gradually increases following ˜1 min of initial quiescence and peaked at the level of ˜50 flashes per min within the imaging area (640×640 μm^2) in ˜5 min (FIG. 6b, c and FIG. 7a). Moreover, high-frequency ATP flashes also occurs in the repeated trials (FIG. 7b).
(§1) a, Schematic diagram of the experimental setup for in vivo two-photon imaging (920 nm) of ATP release following cOpn5-mediated astrocyte activation. Images show the expression of cOpn5 (red) in astrocytes and the expression of a GRABATP sensor (green) in astrocytes within the mouse S1 cortex. Scale bar, 100 μm.

[3] = test system: GCaMP7b-expressing neurons in mouse S1 cortex; assay: In vivo two-photon neuron calcium imaging following cOpn5-mediated astrocyte activation; details: cOpn5-mediated astrocytes activation; N=193 neurons
Method: Astrocytes release ATP and other gliotransmitters also act on neuronal receptors to modulate neuron activity. Two-photon imaging of neuronal Ca^2+ signals with cOpn5-mediated astrocytes activation from head-fixed awake, behaving mice, is performed (FIG. 6e). cOpn5-expressing cells (n=406) colocalize with GFAP-staining (n=397), but not GCaMP7b-expressing neurons (FIG. 6f).
as §1, with “e,” for “a,”, “neuron calcium imaging” for “ATP release”, “GCaMP7b” for “GRABATP sensor”
h, Calcium events analysis of GCaMP7b-expressing neurons in 0-5 min and 15-20 min, coupled with cOpn5-mediated astrocytes activation. N=193 neurons, ****P<0.0001, Unpaired t test.

[4] = 10 ms 16 μW/mm2 470 nm, mean±S.E.M., n=10 cells
[5] = cOpn5- and GRABATP-expressing mice, 920 nm light

B1: cOpn5: Chicken (Gallus gallus) Opn5 (neuropsin) ortholog, SEQ ID NO:1, GenBank NM_001130743.1 (protein, listed as Gallus lafayetii)
chain: MSGMASDCNSSSQEEYLPHYVQQEDPFASKLSREADIIAGFYLTVIGILSTLGNGYVIFMSSKRKKKLRPAEIMTVNLAVCDLGISVVGKPFSIISFFSHRWIFGWMGCRWYGWAGFFFGCGSLITMTAVSLDRYLKICHLAYGTWLKRHHAFICLALIWAYATFWATVPFAGVGSYAPEPFGTSCTLDWWLAQASVAGQAFVLSILFFCLLFPTAVIVFSYVKIILKVKSSTKEVAHYDTRIQNSHILEMKLTKVAMLICAGFLIAWIPYAVVSVWSAFGQPDSVPIQFSVVPTLLAKSAAMYNPIIYQVIDCKFACCRSGGPKTLQKKSSLKESRMYTLSSHRDSAALSGTQLEV
[1]
  light sensitivity higher than reported values of Channelrhodopsin-2 (ChR2): 2-3 orders of magnitude
  light sensitivity higher than reported values of light-sensitive Gq-coupled GPCRs: 3-4 orders of magnitude
  more light-sensitive than opto-a1AR and opn4: ~3 orders
[1]; [4]
  10% peak activation time of Ca2+ signal: 1.36 ± 0.55 s
  90% peak activation time of Ca2+ signal: 2.37 ± 0.87 s
  decay time τ of Ca2+ signal: 18.66 ± 4.98 s
[1]; 10 ms, 16 μW/mm2, 470 nm
  Ca2+ signals without extracellular Ca2+: resistant to the removal of extracellular Ca^2+
[1]; 16 μW/mm2, 470 nm
  light duration at which Ca2+ response achieves saturation: over 10 ms
[1]; 100 μW/mm2
  Ca2+ response to longer-wavelength visible light (561 nm or above): completely ineffective
[1]; 100 μW/mm2, versus 470 nm
  Ca2+ response to UVA light (365 and 395 nm): less effective
[1]; 470 nm, 10 ms
  light intensity producing about half maximum response: ~4.8 μW/mm^2
  light intensity producing full maximum response / full activation: 16 μW/mm^2
[1]; 470 nm, 16 μW/mm2
  light duration required for full activation: 10 ms
[1]; HEK 293T cells, 10 ms stimulation, response ~3.0 ΔF/F
  Light Sensitivity: 16 μW/mm^2
[1]; HEK 293T cells, 470 nm, 0.026 μW/mm2, >2 s
  Response amplitude: Ca2+ response amplitude: ~1 (ΔE/F)
[1]; HEK 293T cells, >2 s stimulation, response ~1
  Light Sensitivity: 0.026 μW/mm^2
[1]; HEK 293T, light as in the row's sensitivity and duration columns
  Response amplitude: Ca2+ response amplitude: ~3.0 (ΔF/F)
[1]; blue light 10 s, 100 μW/mm2, 488 nm, no exogenous retinal
  light-induced increase in Ca2+ signal: ~3 ΔF/F
[1]; cOpn5-expressing cells, 10 ms blue light pulses at 16 μW/mm2
  peak amplitudes of Ca2+ signals: 3-8 ΔF/F
[1]; in response to 10 ms light pulses
  more rapid than opto-a1AR or opn4 (temporal resolution): ~3 orders of magnitude
[1]; light 10 s vs CNO puff 100 nM 10 s
  response kinetics versus hM3Dq-expressing cells: faster and temporally more precise response
[1]; wavelengths 365-630 nm at fixed 100 μW/mm2
  wavelength eliciting the strongest Ca2+ transients: 470 nm
[2]; cOpn5- and GRABATP-expressing mice
  initial quiescence before flash frequency increases: ~1 min
[2]; [5]
  diameter of individual ATP flashes: 20-100 μm
  duration of individual ATP flashes: ~1 min
[2]; cOpn5-expressing mice
  time to peak ATP flash frequency: ~5 min
[2]; mouse, in vivo
  ATP flash frequency versus proinflammatory (LPS) treatment of non-cOpn5-expressing mice: ~25 times
[2]; pulsed laser for two-photon imaging
  two-photon activation wavelength: ≥ 920 nm
[2]; within the imaging area (640×640 μm2), cOpn5-expressing mice
  peak ATP flash frequency: ~50 flashes per min
[3]
  neuron activity, 15-20 min compared to 0-5 min: significantly elevates neuron activity
